The results in this text go back to patent publication US20160145598.

The data set concerns the target thrombin.

B1: FX-control+ of family 2 (insertion of the thrombin recognition site on fibrinogen = fibrinopeptide A; comparative) (protein)
chain: ANSFLEEMKKGHLERECMEETCSYEEAREVFEDSDKTNEFWNKYKDGDQCETSPCQNQGKCKDGLGEYTCTCLEGFEGKNCELFTRKLCSLDNGDCDQFCHEEQNSVVCSCARGYTLADNGKACIPTGPYPCGKQTLERRKRSVAQATSSSGEAPDSITWKPYDAADLDPTENPFDLLDFNQTQPERGDNNLTRDFLAEGGGVRIVGGQECKDGECPWQALLINEENEGFCGGTILSEFYILTAAHCLYQAKRFKVRVGDRNTEQEEGGEAVHEVEVVIKHNRFTKETYDFDIAVLRLKTPITFRMNVAPACLPERDWAESTLMTQKTGIVSGFGRTHEKGRQSTRLKMLEVPYVDRNSCKLSSSFIITQNMFCAGYDTKQEDACQGDSGGPHVTRFKDTYFVTGIVSWGEGCARKGKYGIYTKVTAFLKWIDRSMKTRGLPKAKSHAPEVITSSPLKEDQVDPRLIDGK
In the case of B1, the “appearance of FXa after incubation with thrombin (Pefachrome FXa8595 hydrolysis at 405 nm)” value was “FX-IIa and FX-control+ are capable of being activated by thrombin and of releasing FXa”.
